# Measured values as given in the supplement of paper PMC9112550, “Optimization of the antimicrobial peptide Bac7 by deep mutational scanning” (BMC Biology, 2022).
# Tested on: Escherichia coli TOP10
# Assay: shrunken log2 fold change of peptide-encoding DNA abundance (4.5 h post-induction vs induction); higher = less antimicrobial activity (less host growth inhibition)
# Details: time post-induction: 4.5 h; library: site-saturation at positions 5, 18, 19, 20
# 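Note: peptides expressed intracellularly from a pBAD plasmid library in pooled LB shake-flask culture, induced with 0.3% L-arabinose, DNA abundance read by NGS, three biological replicates, DESeq2 with apeglm shrinkage.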
row,Sequence,shrunken log2 fold change
1,RRIRCRPPRLPRPRPRPPMKPRP,0.242
2,RRIRYRPPRLPRPRPRPPPTPRP,0.867
3,RRIRFRPPRLPRPRPRPSHWPRP,0.0131
4,RRIRHRPPRLPRPRPRPYPIPRP,-0.887
5,RRIRLRPPRLPRPRPRPNKGPRP,-0.254
6,RRIRNRPPRLPRPRPRPLFMPRP,-0.235
7,RRIRLRPPRLPRPRPRPIYMPRP,-0.199
8,RRIRPRPPRLPRPRPRPRAAPRP,0.611
9,RRIRMRPPRLPRPRPRPPPCPRP,1.73
10,RRIRMRPPRLPRPRPRPCHHPRP,-0.353
11,RRIRGRPPRLPRPRPRPWQCPRP,0.0158
12,RRIRVRPPRLPRPRPRPRWHPRP,0.217
13,RRIRFRPPRLPRPRPRPSRSPRP,-0.104
14,RRIRKRPPRLPRPRPRPCGDPRP,0.466
15,RRIRYRPPRLPRPRPRPSFQPRP,-1.13
16,RRIRARPPRLPRPRPRPLVAPRP,0.58
17,RRIRERPPRLPRPRPRPAGMPRP,-0.0133
18,RRIRERPPRLPRPRPRPHVLPRP,-0.202
19,RRIRLRPPRLPRPRPRPYTAPRP,-0.863
20,RRIRKRPPRLPRPRPRPAKQPRP,0.0123
21,RRIRFRPPRLPRPRPRPFIMPRP,-0.655
22,RRIRKRPPRLPRPRPRPNKKPRP,-0.279
23,RRIRARPPRLPRPRPRPKAPPRP,0.56
24,RRIRDRPPRLPRPRPRPTFMPRP,-0.07
25,RRIRDRPPRLPRPRPRPSKMPRP,-0.0126

row,Sequence,shrunken log2 fold change
1,RRIRWRPPRLPRPRPRPQERPRP,-0.0207
2,RRIRGRPPRLPRPRPRPKHLPRP,0.0257
3,RRIRMRPPRLPRPRPRPWSNPRP,-0.254
4,RRIRKRPPRLPRPRPRPNRKPRP,0.0065
5,RRIRLRPPRLPRPRPRPRLEPRP,0.348
6,RRIRERPPRLPRPRPRPVTHPRP,-0.194
7,RRIRHRPPRLPRPRPRPLCCPRP,-0.0675
8,RRIRTRPPRLPRPRPRPCKDPRP,0.027
9,RRIRERPPRLPRPRPRPHDTPRP,-0.332
10,RRIRIRPPRLPRPRPRPRPEPRP,0.11
11,RRIRQRPPRLPRPRPRPIVAPRP,-0.00611
12,RRIRIRPPRLPRPRPRPTYRPRP,-0.0791
13,RRIRQRPPRLPRPRPRPGHCPRP,0.217
14,RRIRYRPPRLPRPRPRPDGKPRP,-0.01
15,RRIRFRPPRLPRPRPRPPWDPRP,0.195
16,RRIRERPPRLPRPRPRPGHEPRP,0.159
17,RRIRIRPPRLPRPRPRPIPFPRP,-1.35
18,RRIRTRPPRLPRPRPRPVGLPRP,-0.00734
19,RRIRLRPPRLPRPRPRPVIQPRP,-0.0903
20,RRIRCRPPRLPRPRPRPVAHPRP,-0.277
21,RRIRPRPPRLPRPRPRPHREPRP,-0.176
22,RRIRRRPPRLPRPRPRPSDQPRP,0.0918
23,RRIRARPPRLPRPRPRPFSSPRP,-0.159
24,RRIRERPPRLPRPRPRPEVRPRP,0.138
25,RRIRHRPPRLPRPRPRPTFEPRP,0.0452

row,Sequence,shrunken log2 fold change
1,RRIRMRPPRLPRPRPRPIFLPRP,-0.227
2,RRIRYRPPRLPRPRPRPCCQPRP,0.0173
3,RRIRERPPRLPRPRPRPQIKPRP,-0.723
4,RRIRERPPRLPRPRPRPICDPRP,-0.221
5,RRIRTRPPRLPRPRPRPVIWPRP,0.128
6,RRIRQRPPRLPRPRPRPINVPRP,-0.0732
7,RRIRLRPPRLPRPRPRPMYTPRP,-0.119
8,RRIRNRPPRLPRPRPRPWDAPRP,-0.157
9,RRIRVRPPRLPRPRPRPATRPRP,0.383
10,RRIRSRPPRLPRPRPRPYFFPRP,-0.682
11,RRIRFRPPRLPRPRPRPQATPRP,-0.248
12,RRIRIRPPRLPRPRPRPFGCPRP,-0.742
13,RRIRFRPPRLPRPRPRPKELPRP,-0.127
14,RRIRMRPPRLPRPRPRPYNYPRP,-0.2
15,RRIRTRPPRLPRPRPRPCLFPRP,-0.16
16,RRIRARPPRLPRPRPRPQPEPRP,1.04
17,RRIRIRPPRLPRPRPRPPSDPRP,-0.101
18,RRIRGRPPRLPRPRPRPPIWPRP,0.67
19,RRIRLRPPRLPRPRPRPSTMPRP,-0.407
20,RRIRRRPPRLPRPRPRPDYKPRP,-0.284
21,RRIRCRPPRLPRPRPRPEVKPRP,0.149
22,RRIRMRPPRLPRPRPRPSCNPRP,0.197
23,RRIRTRPPRLPRPRPRPCVKPRP,0.0506
24,RRIRNRPPRLPRPRPRPFMEPRP,-0.167
25,RRIRPRPPRLPRPRPRPKCVPRP,0.0688
